Measured values: patent publication US20100261245

Test system: T1, VEGF, P15692-4
T1 sequence: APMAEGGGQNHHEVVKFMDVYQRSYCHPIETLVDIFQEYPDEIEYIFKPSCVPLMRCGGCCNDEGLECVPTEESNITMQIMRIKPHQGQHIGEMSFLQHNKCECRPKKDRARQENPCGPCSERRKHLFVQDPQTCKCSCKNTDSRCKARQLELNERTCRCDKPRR
Assay: SPR
Conditions: BIAcore 2000, VEGF immobilized, aptamer 30-500 nM

## AUGCAGUUUGAGAAGUCGCGCAU [anti-VEGF 2'-OMe-RNA aptamer]
2'-OMe at all positions as printed (Am, Um, Gm, Cm), 5' terminal amine group stated for the PEGylation precursor, PBS pH 7.4 stated for the PEGylated aptamer
  Kd: 1.87 nM

## AUGCAGUUUGAGAAGUCGCGCAU [PEGylated anti-VEGF 2'-OMe-RNA aptamer]
2'-OMe at all positions as printed, 5'-PEG 20 kDa (mPEG-SPA via 5' amine), PBS pH 7.4
  Kd: 87 nM
